Measurements reported in patent publication US20220009989A1.

What was measured:
Biotinylated PCSK9 = Biotinylated PCSK9 (UniProt Q8NBP7); test: PCSK9-LDL-R competitive ELISA (biotinylated PCSK9, coated rhLDL-R), Ki from IC50
[1] = target: PCSK9 (10 ug/mL; in-house production) (UniProt Q8NBP7); test: cell-based or functional assay
[2] = target: solubilised human IR-A (human) (UniProt P06213); test: SPA competition vs [125I-A14Y]-human insulin, solubilised hIR-A, 0% HSA, relative to human insulin
[3] = target: solubilised human IR-A (human) (UniProt P06213); test: SPA competition vs [125I-A14Y]-human insulin, solubilised hIR-A, 1.5% HSA, relative to human insulin

Sequence of solubilised human IR-A (human) (P06213 other isoform, or with tags, fused parts or gaps limits assumed): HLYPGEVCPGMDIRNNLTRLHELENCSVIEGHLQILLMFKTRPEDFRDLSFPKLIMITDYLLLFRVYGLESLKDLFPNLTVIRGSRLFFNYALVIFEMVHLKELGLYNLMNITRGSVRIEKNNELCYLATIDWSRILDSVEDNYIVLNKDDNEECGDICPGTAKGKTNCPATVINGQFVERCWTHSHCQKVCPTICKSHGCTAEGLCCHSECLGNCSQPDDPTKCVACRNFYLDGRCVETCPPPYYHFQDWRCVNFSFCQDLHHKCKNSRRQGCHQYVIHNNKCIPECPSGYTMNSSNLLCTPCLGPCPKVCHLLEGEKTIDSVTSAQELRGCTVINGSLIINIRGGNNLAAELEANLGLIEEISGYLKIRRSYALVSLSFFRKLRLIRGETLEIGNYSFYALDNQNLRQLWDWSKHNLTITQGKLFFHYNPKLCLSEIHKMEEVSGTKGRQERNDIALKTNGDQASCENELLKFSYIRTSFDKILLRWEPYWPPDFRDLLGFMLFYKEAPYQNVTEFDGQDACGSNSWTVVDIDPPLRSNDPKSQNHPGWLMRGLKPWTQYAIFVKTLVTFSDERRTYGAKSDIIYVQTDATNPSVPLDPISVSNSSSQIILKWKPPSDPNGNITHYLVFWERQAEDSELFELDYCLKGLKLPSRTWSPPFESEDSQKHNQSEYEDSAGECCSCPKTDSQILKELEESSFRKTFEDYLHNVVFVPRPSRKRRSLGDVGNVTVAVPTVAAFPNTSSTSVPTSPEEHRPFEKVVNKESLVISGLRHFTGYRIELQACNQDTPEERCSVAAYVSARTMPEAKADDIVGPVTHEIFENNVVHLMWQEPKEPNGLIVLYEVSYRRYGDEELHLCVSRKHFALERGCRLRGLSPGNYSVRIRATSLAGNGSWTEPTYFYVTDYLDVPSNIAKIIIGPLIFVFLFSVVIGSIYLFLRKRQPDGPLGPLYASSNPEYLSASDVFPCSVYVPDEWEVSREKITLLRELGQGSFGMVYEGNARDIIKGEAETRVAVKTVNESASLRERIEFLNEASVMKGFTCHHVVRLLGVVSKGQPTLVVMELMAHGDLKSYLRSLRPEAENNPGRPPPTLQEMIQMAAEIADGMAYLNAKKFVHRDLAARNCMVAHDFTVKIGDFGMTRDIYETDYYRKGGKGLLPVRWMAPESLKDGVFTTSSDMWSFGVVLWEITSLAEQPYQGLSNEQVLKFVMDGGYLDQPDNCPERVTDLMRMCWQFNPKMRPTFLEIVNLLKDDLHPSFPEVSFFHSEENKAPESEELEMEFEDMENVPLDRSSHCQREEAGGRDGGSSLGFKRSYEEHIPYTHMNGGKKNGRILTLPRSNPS

| Substance | Ki (Biotinylated PCSK9) [nM] | LDL uptake EC50 (nM) in HepG2 cells [1] [nM] | hIR-A binding affinity (% rel to HI) [2] | hIR-A binding affinity (% rel to HI) [3] |
| --- | --- | --- | --- | --- |
| EGF(A)(301L, 309R, 312E, 321E)-[GAQP]19-Insulin(A14E, B29K(eicosanedioyl-gGlu-2×OEG), desB30) | – | 126 | 2.89 % rel to HI | 0.14 % rel to HI |
| EGF(A)(301L, 309R, 312E, 321E)-[GAQP]19-Insulin(A14E, B29K(octadecanedioyl-gGlu-2×OEG), desB30) | 2.12 | 123 | 2.99 % rel to HI | 0.14 % rel to HI |
| EGF(A)(301L, 309R, 312E, 321E, 328K(hexadecanedioyl-gGlu-2×OEG), 330K(hexadecanedioyl-gGlu-2×OEG)) (peptide; modification not given) | – | 152 | – | – |

Next, values leading:

| Ki (Biotinylated PCSK9) [nM] | LDL uptake EC50 (nM) in HepG2 cells [1] [nM] | hIR-A binding affinity (% rel to HI) [2] | hIR-A binding affinity (% rel to HI) [3] | Substance |
| --- | --- | --- | --- | --- |
| 1.75 | – | – | – | EGF(A)(301L, 309R, 312E, 321E)-[GAQP]6-Insulin(A14E, B29K(eicosanedioyl-gGlu-2×OEG), desB30 |
| 1.92 | – | – | – | EGF(A)(301L, 309R, 312E, 321E)-[GAQP]6-Insulin(A14E, B29K(octadecanedioyl-gGlu-2×OEG), desB30) |
| 2.07 | – | – | – | EGF(A)(301L, 309R, 312E, 321E)-[GAQP]6-Insulin(A14E, B29K(octadecanedioyl-gGlu-OEG), desB30) |
| 1.86 | – | 4.15 % rel to HI | 0.29 % rel to HI | EGF(A)(301L, 309R, 312E, 321E)-[GAQP]19-Insulin(B3E, B29K(eicosanedioyl-gGlu-2×OEG), desB30) |
| 1.9 | – | – | – | EGF(A)(301L, 309R, 312E, 321E, 328K(hexadecanedioyl-gGlu-2×OEG), 330K(hexadecanedioyl-gGlu-2×OEG)) (peptide; modification not given; biotinylated (sites not stated)) |
